T1: human ICOS ligand (B7-H2) (human, UniProt O75144 19-258, limits assumed)
T1 construct: it is treated as the same molecule; also called CD275; recombinant ICOS-L (R&D Systems)
T1 sequence (looked up): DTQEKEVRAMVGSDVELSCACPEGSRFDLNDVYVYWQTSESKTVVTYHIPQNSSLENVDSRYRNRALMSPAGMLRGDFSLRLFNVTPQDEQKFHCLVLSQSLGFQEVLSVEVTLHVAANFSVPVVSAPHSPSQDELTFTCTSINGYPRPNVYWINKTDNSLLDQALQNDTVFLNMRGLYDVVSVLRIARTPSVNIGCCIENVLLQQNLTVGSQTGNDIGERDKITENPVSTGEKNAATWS

T2: rabbit Fc-tagged recombinant extracellular human ICOS (human, UniProt Q9Y6W8 21-140)
T2 construct: also called dimeric human ICOS; not shown: rabbit Fc tag
T2 sequence: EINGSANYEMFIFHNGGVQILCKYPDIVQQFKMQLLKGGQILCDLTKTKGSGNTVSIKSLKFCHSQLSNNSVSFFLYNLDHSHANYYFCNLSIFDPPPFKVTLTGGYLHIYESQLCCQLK


Columns and labels:
[1] = biological target: T1, human ICOS ligand (B7-H2); test: flow cytometry competition: activated T cells pre-incubated with recombinant ICOS-L (B7-H2), then stained with H2L5; CD8+ cells
[2] = biological target: T2, rabbit Fc-tagged recombinant …; test: SPR (Biacore), compared with human ICOS-L binding to dimeric human ICOS (FIG. 15B)

| binding result [1] | fold higher affinity than the ICOS-L/ICOS interaction [2] [fold] | Binder |
| --- | --- | --- |
| binds | – | human ICOS on activated human T cells (receptor, the isoform 1 entry is named; also called cell surface ICOS; ICOS+ T cells (CD4, CD8, Treg)) EINGSANYEMFIFHNGGVQILCKYPDIVQQFKMQLLKGGQILCDLTKTKGSGNTVSIKSLKFCHSQLSNNSVSFFLYNLDHSHANYYFCNLSIFDPPPFKVTLTGGYLHIYESQLCCQLKFWLPIGCAAFVVVCILGCILICWLTKKKYSSSVHDPNGEYMFMRAVNTAKKSRLTDVTL |
| – | ~17 | H2L5 IgG4PE (antibody, V domains shown, Human IgG4 with Fc mutations S228P and L235E (EU numbering), called IgG4PE; humanized variant of murine clone 422.2; also called ICOS IgG4PE; H2L5 (ICOS) IgG4PE) VH: QVQLVQSGAEVKKPGSSVKVSCKASGYTFTDYAMHWVRQAPGQGLEWMGLISIYSDHTNYNQKFQGRVTITADKSTSTAYMELSSLRSEDTAVYYCGRNNYGNYGWYFDVWGQGTTVTVSS VL: EIVLTQSPATLSLSPGERATLSCSASSSVSYMHWYQQKPGQAPRLLIYDTSKLASGIPARFSGSGSGTDYTLTISSLEPEDFAVYYCFQGSGYPYTFGQGTKLEIK |
